Reference: article PMC12689640

Columns and labels:
[1] = biological target: μOR N86^1.50A-RLuc8 (mouse) (UniProt P42866)
[2] = biological target: μOR Q124^2.60L-RLuc8 (mouse) (UniProt P42866)
[3] = biological target: μOR Y326^7.43F-RLuc8 (mouse) (UniProt P42866)
[4] = biological target: μOR W293^6.48A-RLuc8 (mouse) (UniProt P42866)
[5] = biological target: μOR S329^7.46A-RLuc8 (mouse) (UniProt P42866)

Gi heterotrimer of the dissociation assay (Gαi1-RLuc8, Gβ1, Venus-Gγ2) (from UniProt P63096 1-354; P62873 1-340; P59768 1-71) (complex)
efficacy of Gi activation against wild type (Gi dissociation BRET) [1]: 40 to 60% | efficacy of Gi dissociation against wild type (BRET), stimulated with DAMGO [2]: 60% | decrease of Gi dissociation efficacy against wild type (BRET) [3]: 30% | efficacy of Gi activation against wild type (Gi dissociation BRET) [4]: 35 to 60% | decrease of Gi dissociation efficacy against wild type (BRET) [5]: 40%
